We go through 30 sequences from the nanobody polyreactivity screen of Harvey et al. (2022).

A short description of the data set: yeast display, Sf9 membrane polyspecificity reagent, FACS + sequencing; frameworks hold sequencing errors. The method, boiled down: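 Nanobodies from a synthetic yeast display library (Saccharomyces cerevisiae BJ5465), induced 36–48 hours with galactose, were stained 1 hour at 4 °C with 10% biotinylated, detergent-solubilized Sf9 membrane reagent, enriched on streptavidin microbeads, then FACS-sorted. Anti-HA (expression) and streptavidin (reagent binding) fluorescence set low and high (top ~1%) gates. Polyreactivity labels come from the gate of origin. Genes were colony-PCR amplified, MiSeq 2 × 250 sequenced and filtered by CDR length.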
On to “QVQLVESGGGLVQAGGSLRLSCAASGFTIRSYVMGWYRQAPGKERELVAAIRRSGGSTYYADSVKGRFTISRDNAKNTVYLHMNSMKPEDTAVYYCAAKAYTYYARIGFDYWGQGSQVTVSS”, for which the “polyreactivity (PSR sort gate)” value was “high polyreactivity”.
Then “QVQLVESGGGLVQAGGSLRLSCAASGFTIRSYVMGWYRQAPGKERELVAAIRRSGGSTYYADSVKGRFTISRDNAKNTVYLQMNSLKPEDTAVYYCAVGARWYWSYYWGQGTQVTVSS”, with “high polyreactivity”; and “QVQLVESGGGLVQAGGSLRLSCAASGFTIRWYTMGWYRQAPGKERELVAAISRGGSTNYADSVKGRFTISRDNAKNTVYLQMNSLKPEDTAVYYCNAVRGGRYGLDYWGQGTQVTVSS”, with “high polyreactivity”; and “QVQLVESGGGLVQAGGSLRLSCAASGFTIRWYTMGWYRQAPGKERELVAAITSGGGTYYADSVKGRFTISRDNAKNTVYLQMNILKPEDTAVYYCAARTLSVARRRPYYYWGQGTQVTGSS”, with “high polyreactivity”.
For “QVQLVESGGGLVQAGGSLRLSCAASGFTIRYYAMGWYRQAPGKERELVAAIDWSGGSTYYADSVKGRFTISRDNAKNTVYLQINSLKPEDTAVYYCNVDFYDLYVYLWYVDYDYWGQGTQVTVSS” the value was “high polyreactivity”.
For “QVQLVESGGGLVQAGGSLRLSCAASGFTISLYTMAWYRQAPGKERELVASNTRRGGSTYYADSVKGRFTISRDYAKNTVYLQMNSLKTEDTAGYYCARAARSDSIFKPRRGYATDGYWGQVTQVTVSS” the value was “high polyreactivity”.
For the sequence “QVQLVESGGGLVQAGGSLRLSCAASGFTISPYAMGWYRQAPGKERELVAGITRNGGSTYYADSVKGRFTISRDNAKNTVYLQMNSLKPEDTAVYYCITKYAVEFDYWGQGTQVTVSS”, the “polyreactivity (PSR sort gate)” value is on record as “low polyreactivity”.
Then “QVQLVESGGGLVQAGGSLRLSCAASGFTISRNAMGWYRQAPGKERELVAAISQSGGSTYYADSVKGRFTISRDNAKNTVYLQMNSLKPEDTAVYYCAAQSFAQYGWRYGYWGQGTQVTVSS”, with “high polyreactivity”; and “QVQLVESGGGLVQAGGSLRLSCAASGFTISRYAIGWYRQAPGKERELVAAITGSGGSTYYADSVKGRFTISRDNAKNTVYLQMNSLKPEDTAVYYCNTLKHYKREYDYWGQGTQVTVSS”, with “high polyreactivity”.
For “QVQLVESGGGLVQAGGSLRLSCAASGFTISVYVMGWYRQAPGKERELVAAISSSGGSTYYADSVKGRFTISRDNAKNTVYLQMNSLKPEDTAVYYCNAAGYWSYAYYWGQGTQVTVSS” the value was “high polyreactivity”; for “QVQLVESGGGLVQAGGSLRLSCAASGFTIWRYAMGWYRQAPGKERELVAAISRGGSTNYADSVKGRFTISRDNAKKTVYLQMNSLKPEDTAGYYCAASVQYRRLKKFYYWGQGTQVTVSS”, “high polyreactivity”.
With “QVQLVESGGGLVQAGGSLRLSCAASGFTIWRYAMGWYRQEPGKERELVAAISRGGSTNYADSVKGRFTISRDNAKNTVYLQMNSLKPEDTAVYYCAASVLYRRLKKFYYWGQGTQVTVSS”, the “polyreactivity (PSR sort gate)” value is on record as “high polyreactivity”.
Then “QVQLVESGGGLVQAGGSLRLSCAASGFTIYLYTMGWYRQAPGKERELVAAITSSGTRTYYADSVKGRFTISRDNAKNTVYLQMNSLKPEDTAVYYCNAARYGRHLSTYDYWGQGTQVTVSS”, with “high polyreactivity”; and “QVQLVESGGGLVQAGGSLRLSCAASGFTIYNYAMGWYRQAPGKERELVAAISWSGGSTHYADSVKGRFTISRDNAKNTVYLQMNSLKPEDTAVYYCAKVGVLVYYTYYYWGQGTQVTVSS”, with “low polyreactivity”.
For “QVQLVESGGGLVQAGGSLRLSCAASGFTIYRYAMGWYRQAPGKERELVATIRRGGSTKYADSVKGRYTISRDNAKNTVYILMISLKPEDTAVYYCNARYYAAPDKYYYWGQGTQVTVSS” the value was “low polyreactivity”; for “QVQLVESGGGLVQAGGSLRLSCAASGFTIYSYAKAWYRQAPGKERELVAAITRGSSTNYADSVKGRFTISRDNAKNTVYLQMNSLKPEDTAVYYCNRGGWRQYDSWGQGTQVTVSS”, “high polyreactivity”.
Then “QVQLVESGGGLVQAGGSLRLSCAASGFTLANYAMGWYRQAPGKERELVAAIDYSGGGTYYADSVKGRFTISRDNAKNTVYFQMNSLKPEDTAVYYCAARRWSYYSAKYDYWGQGTQVTVSS”, with “low polyreactivity”; and “QVQLVESGGGLVQAGGSLRLSCAASGFTLANYAMGWYRQAPGKERELVAAISSSTGGTYYADSVKGRFTISRDNAKNTVYLQMNSLKPEDTAVYYCAAEYYFHKYVRMYYWGQGTQVTVSS”, with “high polyreactivity”; and “QVQLVESGGGLVQAGGSLRLSCAASGFTLARNAMVWYRQAPGKERELVAANSWSGGTTYYADSVKGSFTISRDNAKNTVYLQMNSLKPEDTAVYYCNTASWRAQYYYWGQGNQVTVSS”, with “high polyreactivity”.
As to “QVQLVESGGGLVQAGGSLRLSCAASGFTLAYNAMGWYRQAPGKESELVAAISKSSGSTYYADSVKGRFTISRDNSKNTFYLQMNSLKPEDTAVYYCAAEFYFNGVWYDYWGQGTQVTVSS”, the “polyreactivity (PSR sort gate)” value is listed as “high polyreactivity”.
For “QVQLVESGGGLVQAGGSLRLSCAASGFTLDPYAMGWYRQAPGKERELVAAIRLSGSSTYYADSVKGRFTISRDNAKNTVYLQMNSLKPEDTAVYYCAADGISHWLYRYDYWGQGTQVTVSS” the value was “low polyreactivity”; for “QVQLVESGGGLVQAGGSLRLSCAASGFTLDQYAMGWYRQAPGKERELVAVITSGGNTYYADSVKGRFTISRDNAKNTVYLQMNSLKPEDTAVYYCAKDVSDPFYDPFEYWGQGTQVTVSS”, “low polyreactivity”; for “QVQLVESGGGLVQAGGSLRLSCAASGFTLDSNALGWYRQAPGKERELVAAISWDDGSTYYADSVKGRFTISRDNAKNTVYLQMNSLKPEDTAVYYCAADASDVYGDRPWFHYYWGYDYWGQGTQVTVSS”, “low polyreactivity”.
Then “QVQLVESGGGLVQAGGSLRLSCAASGFTLFGYAMGWYRQAPGKERELVAAISKDGGSTYYADSVKGRFTISRDNAKNTVYLQMNSLKPEDTAVYSCAARVKRPQTGYDRRYGYWGQGTQVTVSS”, with “high polyreactivity”; and “QVQLVESGGGLVQAGGSLRLSCAASGFTLFGYAMGWYRQAPGKERELVAAISKDGGSTYYADTVKGRFTISRDNAKNTVYLQMNSLKPEDTAVYYCAARVKRPQSGYDRRYGYWGQGTQVTVSS”, with “high polyreactivity”; and “QVQLVESGGGLVQAGGSLRLSCAASGFTLFYNAMGWYRQAPGKERELVAAITARGGGTYYADSVKGRFTISRDNAKNPVYLQMNSLKPEDTAVYYCAADSFIPPYDHWGQGTQVTVSS”, with “low polyreactivity”.
For “QVQLVESGGGLVQAGGSLRLSCAASGFTLGSNAMGWYRQAPGKERELVAAISWDGGRTYYADSVKGRFTISRDNAKNTVYLQMNSLKPEDTAVYYCNRASYLRGTAGGDYWGQGTQVTVSS”, the “polyreactivity (PSR sort gate)” value was “high polyreactivity”.
“QVQLVESGGGLVQAGGSLRLSCAASGFTLGTYAMGWYRQAPGKERELVASITVTGGSTYYADSVKGRFTISRDNAKNTVYLQMNSLKPEDTAVYYCAASYQHFRSVNPYDSWGQGTQVTVSS”: the “polyreactivity (PSR sort gate)” value is on record as “low polyreactivity”.
For “QVQLVESGGGLVQAGGSLRLSCAASGFTLGWYAMGWYRQAPGKERELVAAISRSGGSTYYADSVKGRFTISRDNAKNTVYLQMNSLKPEDTAVYSCAAEVNYAGWAVWSYYWGQGTQVTVSS”, the “polyreactivity (PSR sort gate)” value is “high polyreactivity”.
For “QVQLVESGGGLVQAGGSLRLSCAASGFTLLIYAKGWYRQAPGKERELVAAITWRGSGTYYADSVKGRFTISRDIAKNSVYLQMNSLKPEDTAVYYCAARTARRTYDYWGQGTQVTVSS” the value was “low polyreactivity”.
